Experimental data as given in doi:10.1101/276808 (bioRxiv, 2018).
Several values for one entry are separate records, joined by “and”; a condition that tells them apart may be missing. Equal entries are not always repeated.

Molecular target: the molecule itself
Assay: native gel or EMSA

B1: Lrp (natural protein, Escherichia coli, UniProt P0ACJ0 1-164, looked up)
chain: MVDSKKRPGKDLDRIDRNILNELQKDGRISNVELSKRVGLSPTPCLERVRRLERQGFIQGYTALLNPHYLDASLLVFVEITLNRGAPDVFEQFNTAVQKLEEIQECHLVSGDFDYLLKTRVPDMSAYRKLLGETLLRLPGVNDTRTYVVMEEVKQSNRLVIKTR
stoichiometry N: 8 and 16
